For assay [1], the target named is CuV VP2 (CuV capsid, virus-like particle) (Cutavirus, UniProt A0A1B0VEZ1). Nature of the assay: glycan microarray (CFG v5.[…]), DyLight 488-labelled VLPs. It is filed as binding. The conditions noted are these: immobilised glycan; PBS/Tween-20, room temperature; weak signal, authors advise caution.
In assay [2] the target is Cutavirus (CuV) VP2, assembled as virus-like particles (cutavirus (CuV)). Put plainly: cryo-EM structure.
The target in assay [3] is Tusavirus (TuV) VP2, assembled as virus-like particles (tusavirus (TuV)). Nature of the assay: cryo-EM structure.

As for `CC(=O)N[C@H]1C(O)O[C@H](CO)[C@@H](O[C@@H]2O[C@H](CO)[C@H](O)[C@H](O)[C@H]2O)[C@@H]1O[C@@H]1O[C@@H](C)[C@@H](O)[C@@H](O)[C@@H]1O` (stereo partly drawn) [LeX], the “glycan microarray (CFG v5.2), DyLight 488-labelled VLPs” value in assay [1] was “the minimal LeX motif was weakly bound by CuV”.
“Cutavirus (CuV) VP2, assembled as virus-like particles (natural protein)”: the stoichiometry N in assay [2] amounted to 60.
As to “Tusavirus (TuV) VP2, assembled as virus-like particles (natural protein)”, in assay [3], the stoichiometry N is 60.

The values above are taken from article PMC7354515 (Viruses, 2020).
